Measured values as given in the domain aggregation screens of Martell et al. (2025).

Test: soluble fraction after stress (log2 fold change); higher = more stays soluble; pooled small domains, quantitative proteomics
Conditions: stress: pH 4
In short: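 Following acid stress at pH 4, the amount of each small protein domain still soluble was measured in pooled custom libraries by high-throughput quantitative proteomics. Its fold change, on a log2 scale, is higher when more of the domain stayed soluble. This fold change is taken as a measure of aggregation propensity.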

| Sequence | soluble fraction (log2) |
| --- | --- |
| HMKLSKKVTDFLAQMPSKSISPKMLANNLGLADDAGDYKHLLKTIAQLEESKAIEVTAAGNIALPQPE | 0.0669 |
| HMQGNGKVATELLKDIIASDNLYINAMRMLVMHYNSKGTNQVEMVKLLHNILDLVPDDEYANEILKSAKKA | -0.637 |
| HMLKEGIKEKINQLQVYADKNDNIIWYDRVVDILSDKDDSVTDEMIEAAIRTLEEAGISVERKQ | -1.04 |
| HMGLTLREKMGHVLEMLKGREFLPFVSLFTVEEGRIGVVVTFMSILELVKEGILDLVQTESFGPIHVKAR | 0.0455 |
| HMGEAIPVPDIRHKSQADAERLLQDQGLAMMVTDTGYVKTLPANYILEQIPVAGEKVKSGHVVYVIINSG | 0.0317 |
| HMTVLSKEEFVAIEQRLLQLLGTAPVDNKILLQQLSGIKKEKAWKVLSFLQAENKIGMDATGRVYL | -0.697 |
| HMSFSQNIGKRIREERLRLNLTQEKLAEDVNLSMAYIGQVERGDRSLTLDNLIIVAKRLGVTIDYLLS | -0.171 |
| HMIVDYPSFVGKTKQELEKWAKENNIIIRYRQLSVTASDKVKAQLPATTTYKRIMKGSSIEVELEL | -0.749 |
| HMGDVKLNAIYNFLKEFSALNGFPPSVREIGAKFGIKSTSTVHYYLEKLKQSGVIQQEENKKRAVVIN | -0.446 |
| HMQNNWFYEENGQRKGPVSENEMVQFIKSSVISHGTSVWKQGFPDWLKVENTDLRVHLDNSAP | -0.611 |
| HMSHPNAPLTPEGRRRLAVLIVEDGWTIRRAAERFQVSPATASKWARRYRAGESLTDRSSRP | 0.0223 |
| HMTQGIDQISFSQFLDKVQSGEVTDVRISGSDITGTLKTGGKFETVAGNYEKIWDLLRENKVVFVVDSP | -0.309 |
| HMSADEVSQQLTSEQTKSKSYQALLQAYAAYQQKSFDDAALELQNVQQDVLSDSQKTIYNTISQAVNS | -0.0227 |
| HMGANAVAAFTARVRTGPSTGYPVRISVPQGRQVRVISGPYGGWYRVSYQGLTGYTYGGLLRQG | -0.222 |
| HMEFTVFMNSAGGSKLQVVKTVKELTGLGLKEAKAIVDGSPGPVKEGLSKADAEAMLAKLQEAGADVEL | -0.117 |
| HMPTTLEGIEKYLSSGLIKGIGPHLAGKLVEAFGTRVFEVVEHQPERLRTVGGIGRTRAESITSAWRDQ | -0.141 |

| Sequence | soluble fraction (log2) |
| --- | --- |
| HMSAPTAFSERELELLAGMRRGASNKAMAEQLFISVNTVKYHRANLMRKLGARDRNEALEVAARLG | -0.179 |
| HMQTSETVYTTDKVNVRAGADTSSDKLGSVEKGTSLTRTGTDGDWSIIDYNGTTGYIKSEYLSATAPE | 0.316 |
| HMEEITLQEQINFIKDMLLNKEKFHLTDVITKKSKIYVVSLFLALLELIRLEEINFRQTQNFSDIIISRI | -0.381 |
| HMTDTIALRSVIAESGLKYKALAEIMGLSPYTLQMKIDNESEFKASEIDALANALGMDMQQRDSIFF | -0.406 |
| HMKPDDDMLLKILTKLFIQKQFVINSKDIFQYILKNTNRTYENIINIVNRLDTLSIEKKRQLTIPLIKEI | -0.555 |
| HMLRISLAAARVNAEMTQEDVAREMHVSKNTVVNWEKGKSEPTISQSRELSKLYNMPLEYIFYL | 0.258 |
| HMLKEDSAYELGLRIFDQALNDYGTSFIDLKEDEYKKVLSIYGYSNPRQLIINIGLGNVIPHLLARDITE | -1.17 |
| HMHYKLIIFENHTKSTSLDITPEQARQILGVTDYTPEQYEILAEITNRPASYFMDDLVDYYVD | -1.53 |
| HMKLRKINLIGIFGSKTAPSALVRLTNGRVLKVGLGELLDGGRVTAIGRSSLTYNKSGKSITLNMPI | ≥ 0.43 |
| HMLPIKLDLEIGENVRVVSGPLENFVGSVVSFDTDQQKVKLVVEMFGRKTPVELDFIEVQKLR | -1.47 |
| HMAMPQPVARALHRLGQDISAARRMRRLSQEDLAQRIGTSLSTVRRMEDGYPGTALHTFLRALHML | -0.4 |
| HMNLGVIYSLKAEVRSEPNTFSTRLFEVHEGLKVSINQLENDWVEIELLDGKTGWISNDQIRLI | -0.772 |
| HMSDTSELESIIAQIIEDNPKSIEDIGAGNQKAYGFLTGQVMKATKGQANPQVANKIIRELVARKLE | -0.41 |
| HMTMRFVVADGQNFGSIAQSKALEAVKKGNTEFNYKDVDYTVDIQSDDFYVVYQGRDIMGYASR | -1.89 |
| HMEVTLGLGSMVRLLGEPYLGSTGRVVELPDQAERFASGLTAKVAVVERHDGELIRVPVTNLLLME | 0.214 |
